Substitutions are numbered along the chain they refer to.
Legend:
CD3 on Jurkat cells = target: T1, CD3 on Jurkat cells (human, UniProt P07766;P09693;P04234); test: flow cytometry on Jurkat cells, FITC-labelled secondary antibody, MFI (Example 3)
T1 construct: on the surface of Jurkat cells
Protocol: The Jurkat cells were adjusted to a concentration of 4×10⁶ cells/ml with PBS, and the cell suspension (50 μl/well) and different concentrations of CD3 antibodies (50 μl/well) were sequentially added to a U-shaped 96-well plate and mixed evenly to achieve final antibody concentrations of […]. The cells were incubated in a 4° C. refrigerator for 1.5 h. After the incubation was completed, the plate was centrifuged (300 g, 5 min), then the supernatant was removed and the residue was washed with PBS (200 μl/well). Finally, FITC-conjugated AffiniPure Rat Anti-Mouse IgG (H+L) was added for staining, and flow cytometry was used for analysis and quantification.

Human CD3E & CD3G [1] = target: T2, Human CD3E & CD3G (human, UniProt P07766;P09693); test: ELISA on plate-coated CD3E & CD3G heterodimer protein (Example 2); 95% CI 25,03 to 66,53 ng/ml, R squared 0.9718
T2 construct: recombinant, tag given as Lama Fc; also called CD3E & CD3G heterodimer protein; CD3E/G antigen
T2 sequence (P07766 23-126 limits assumed, chain 1 of 2): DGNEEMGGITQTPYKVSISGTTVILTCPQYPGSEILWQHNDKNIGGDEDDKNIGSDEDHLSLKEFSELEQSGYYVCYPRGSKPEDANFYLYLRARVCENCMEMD
T2 sequence (P09693 23-116 limits assumed, chain 2 of 2): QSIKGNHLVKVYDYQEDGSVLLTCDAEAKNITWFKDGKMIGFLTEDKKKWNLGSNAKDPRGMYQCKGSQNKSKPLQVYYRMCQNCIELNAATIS
Protocol: (§1) An ELISA plate was coated with CD3E & CD3G heterodimer protein (as shown in FIG. 3) at 100 ng/well at 4° C. overnight. The next day, the plate was blocked with a blocking solution (3% BSA in 1×PBS) for 2 h, washed with a washing solution and drained. The plate was then added with gradiently diluted humanized CD3 antibodies, and incubated at 37° C. for 1 h. The reaction solution was discarded, and the plate was washed and drained. The plate was then added with diluted detection antibody (THE™ His Tag Antibody [HRP]) at 100 μL per well and incubated at 37° C. for 1 h. The detection antibody was discarded, and the plate was washed and drained. The plate was then added with a single-component TMB color developing solution returned to room temperature at 100 μL per well, and the color development was performed at 37° C. for 10 min. After the color was developed, a stop solution was added to the plate at 100 μL per well to terminate the color development reaction. The absorbance was read at 450 nm using a microplate reader.

Human CD3E & CD3G [2] = target: T2, Human CD3E & CD3G; test: ELISA, plate coated with CD3E & CD3G heterodimer protein (100 ng/well), anti-His tag HRP detection (Example 2)
Protocol: as §1

Human CD3E & CD3G [3] = target: T2, Human CD3E & CD3G; test: ELISA on plate-coated CD3E & CD3G heterodimer protein (Example 2); 95% CI 20,94 to 55,12 ng/ml, R squared 0.9704
Protocol: as §1

Human CD3E & CD3G [4] = target: T2, Human CD3E & CD3G; test: ELISA on plate-coated CD3E & CD3G heterodimer protein (Example 2); 95% CI 8,947 to 24,24 ng/ml, R squared 0.9587
Protocol: as §1

Human CD3E & CD3G [5] = target: T2, Human CD3E & CD3G; test: ELISA on plate-coated CD3E & CD3G heterodimer protein (Example 2); 95% CI 23,44 to 39,91 ng/ml, R squared 0.9911
Protocol: as §1

T1 sequence (P07766 23-207, chain 1 of 3): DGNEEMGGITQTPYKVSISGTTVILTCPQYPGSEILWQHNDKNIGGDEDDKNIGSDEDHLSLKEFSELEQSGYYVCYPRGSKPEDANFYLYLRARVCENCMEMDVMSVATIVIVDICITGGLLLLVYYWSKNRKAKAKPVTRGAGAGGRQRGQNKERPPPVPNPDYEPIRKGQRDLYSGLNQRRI
T1 sequence (P09693 23-182, chain 2 of 3): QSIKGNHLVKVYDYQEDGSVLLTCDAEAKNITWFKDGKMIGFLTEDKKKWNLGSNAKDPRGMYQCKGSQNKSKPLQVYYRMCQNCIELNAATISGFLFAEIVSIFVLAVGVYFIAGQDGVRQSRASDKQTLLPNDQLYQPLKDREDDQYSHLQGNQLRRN
T1 sequence (P04234 22-171, chain 3 of 3): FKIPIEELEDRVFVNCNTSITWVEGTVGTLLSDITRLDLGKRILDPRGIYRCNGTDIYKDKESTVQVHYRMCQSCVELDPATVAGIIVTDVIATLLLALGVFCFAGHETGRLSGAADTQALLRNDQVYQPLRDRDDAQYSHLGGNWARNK

B1: VH_V2_VL_V4 (antibody, V domains shown)
VH: EVQLVESGGGLVQPGRSLRLSCAASGFTFNNYWMSWVRQAPGKGLEWVSAITKTGGSTYYPDSVKGRFTISRDNSKSTLYLQMNSLRAEDTATYYCTREYYYDPYIDYWGQGVLVTVSS
VL: QFALTQPRSVSGSLGQSVTLSCTRTTGNIGSNYVNWYQQHEGKAPKTMIYRDDKRPSGVPDRFSGSIDRSSNTASLTISGVQAEDEADYYCQSYSSGINIFGGGTKLTVL
notes: also called HV2-LV4
EC50 (read off the curve) (CD3 on Jurkat cells): ~0.05 µg/mL
EC50 (Human CD3E & CD3G [1]): 0.0405 µg/mL

B2: C3002HC-LV4 (antibody, V domains shown)
VH: EVQLVESGGGLVQPGGSLRLSCAASGFTFNNYWMTWIRQAPGKGLEWVASITKTGGSTYYPDSVKGRFTISRDNAKNSLYLQMNSLRAEDTAVYYCTREYYYDPYIDYWGQGTMVTVSS
VL: B1 VL
EC50 (read off the curve) (CD3 on Jurkat cells): ~0.05 µg/mL

B3: VH_V2_VL_V2 (antibody, V domains shown)
VH: B1 VH
VL: QFALTQPRSVSGNLGSSVKISCKRTTGNIGSNYVNWYQQHEGKAPTTMIYRDDKRPDGVPDRFSGSKDRSGNTALLTINNLQTEDEADYYCQSYSSGINIFGGGTKLTVL
notes: also called HV2-LV2
binding result (Human CD3E & CD3G [2]): no binding (tested: 10 µg/ml)

B4: VH_V4_VL_V1 (antibody, V domains shown)
VH: B2 VH with A75S, N77S, S78T, M114L
VL: QSALTQPRSVSGSPGQSVTISCTGTTGNIGSNYVSWYQQHPGKAPKLMIYRDDKRPSGVPDRFSGSKSGNTASLTISGLQAEDEADYYCQSYSSGINIFGGGTKLTVL
notes: also called HV4-LV1
binding result (Human CD3E & CD3G [2]): no binding (tested: 10 µg/ml)

B5: VH_V3_VL_V4 (antibody, V domains shown)
VH: B1 VH with S49A, A50S, S75A, A88S
VL: B1 VL
notes: also called HV3-LV4
EC50 (read off the curve) (CD3 on Jurkat cells): ~0.04 µg/mL
EC50 (Human CD3E & CD3G [3]): 0.0337 µg/mL

B6: C3002-2-HC-LV4 (antibody, V domains shown)
VH: B2 VH with V93T, T113V
VL: B1 VL
EC50 (read off the curve) (CD3 on Jurkat cells): ~0.04 µg/mL

B7: VH_V1_VL_V4 (antibody, V domains shown)
VH: B1 VH with R16G, P61A, S77N, T93V, V113T
VL: B1 VL
notes: also called HV1-LV4
EC50 (read off the curve) (CD3 on Jurkat cells): ~0.04 µg/mL
EC50 (Human CD3E & CD3G [4]): 0.0148 µg/mL

B8: VH_V3_VL_V1 (antibody, V domains shown)
VH: B1 VH with S49A, A50S, S75A, A88S
VL: B4 VL
notes: also called HV3-LV1
binding result (Human CD3E & CD3G [2]): no binding (tested: 10 µg/ml)

B9: VH_V4_VL_V4 (antibody, V domains shown)
VH: B2 VH with A75S, N77S, S78T, M114L
VL: B1 VL
notes: also called HV4-LV4
EC50 (read off the curve) (CD3 on Jurkat cells): ~0.04 µg/mL
EC50 (Human CD3E & CD3G [5]): 0.0305 µg/mL

B10: VH_V3_VL_V2 (antibody, V domains shown)
VH: B1 VH with S49A, A50S, S75A, A88S
VL: B3 VL
notes: also called HV3-LV2
binding result (Human CD3E & CD3G [2]): no binding (tested: 10 µg/ml)

— patent US20260184786A1 (LINDIS BIOTECH, published 2026)
